Results as given in PMC8642555 (Nature Communications, 2021).
Substitutions are numbered along the chain they refer to. Numbers in names are those of the source. Blank lines part the entries; values can stand above or below the molecule they belong to.

Legend:
[1] = molecular target: bIgE-Fc2–4:FcεRIα-Ova complex (UniProt P12319); experiment: bead-based disruption assay; settings: parent: est. 20 µM; read off a plot
IgE [2] = experiment: binding kinetics (method not named in the legend or citing paragraphs; Supplementary Fig. 1e); settings: parent: est. 2.8e-3 s-1; read off a plot
IgE [3] = experiment: binding studies with purified scFvs (method not given; Supplementary Fig. 3c); settings: read off a plot; for koff: parent: est. 2.5e-3; for kon: parent: est. 1.0e6
[4] = molecular target: disulfide locked IgE-Fc2–4(G335C):FcεRIα(W156C) complex (UniProt P12319); experiment: BLI; single cycle kinetics; locked complex captured on Ni-NTA tips, coupled with EDC/NHS, nickel chelated with EDTA; anti-IgE agents in a twofold serial dilution from 1600 nM to 100 nM; 2:1 SCK binding model (Clamp-XP)
FcεRI (Homo sapiens) = FcεRI (Homo sapiens) (UniProt P12319); settings: cited from earlier work
biotinylated IgE-Fc2–4 [5] = molecular target: T1, biotinylated IgE-Fc2–4 (human, UniProt P01854 106-427, biotin (Sulfo-NHS-LC-Biotin labelling)); experiment: BLI; Octet-Red 96; biotin-labeled human IgE immobilised on streptavidin tips (~0.5 nm); serial dilution of anti-IgE agents from the lowest concentration (single-cycle kinetics); 1:1 SCK binding model; settings: both partners purified
T1 construct: human IgE heavy chain constant region, Fc fragment with the domains Cε2 to Cε4 (IgE-Fc2–4); PDB 2Y7Q is a cited IgE-Fc2–4:FcεRIα structure and may be another construct; also called bIgE-Fc2–4; biotin-IgE-Fc2–4

[6] = molecular target: Biotinylated full length recombinant IgE (human) (UniProt P01854); experiment: BLI; biotinylated full length recombinant IgE on streptavidin (SA) tips; single cycle kinetics, five 100 s associations, four 100 s dissociations and a final 600 s dissociation; analyte in two-fold serial dilutions from 50 nM to 1.56 nM; Octet Red 96; 1:1 SCK model in BiaEvaluation 3.0
biotinylated-IgE-Fc2–4 [7] = molecular target: T2, biotinylated-IgE-Fc2–4 (human, biotin (Sulfo-NHS-LC-Biotin)); experiment: BLI; Octet-Red 96; biotin-labeled human IgE on streptavidin tips (~0.5 nm); serial dilution of anti-IgE agents from the lowest concentration (single cycle kinetics); 1:1 SCK model; settings: both partners purified
T2 construct: IgE heavy chain constant region, human, Fc fragment with the domains Cε2, Cε3 and Cε4; the results speak of the KD for free IgE-Fc2–4; also called bIgE-Fc2–4; biotin-IgE-Fc2–4; source: labelled with Sulfo-NHS-LC-Biotin
T2 chain: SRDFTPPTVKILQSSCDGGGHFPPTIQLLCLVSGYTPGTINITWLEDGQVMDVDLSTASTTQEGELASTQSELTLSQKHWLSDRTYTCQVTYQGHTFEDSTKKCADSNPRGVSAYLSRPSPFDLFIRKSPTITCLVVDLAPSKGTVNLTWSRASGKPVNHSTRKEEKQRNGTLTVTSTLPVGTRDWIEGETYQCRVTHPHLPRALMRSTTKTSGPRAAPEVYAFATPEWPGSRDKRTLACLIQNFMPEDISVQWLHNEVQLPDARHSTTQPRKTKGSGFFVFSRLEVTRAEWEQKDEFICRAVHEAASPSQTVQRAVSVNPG

biotinylated IgE-Fc2–4 [8] = molecular target: T3, biotinylated IgE-Fc2–4 (Homo sapiens, UniProt P01854, biotin (Sulfo-NHS-LC-Biotin labelling)); experiment: BLI; Octet-Red 96; biotin-labeled human IgE immobilised on streptavidin tips (~0.5 nm); serial dilution of anti-IgE agents from the lowest concentration (single-cycle kinetics); 1:1 SCK binding model; settings: both partners purified
T3 construct: human IgE heavy chain constant region, Fc fragment with the domains Cε2 to Cε4 (IgE-Fc2–4); PDB 2Y7Q is a cited IgE-Fc2–4:FcεRIα structure and may be another construct; also called bIgE-Fc2–4; biotin-IgE-Fc2–4

biotinylated-IgE-Fc2–4 [9] = molecular target: T2, biotinylated-IgE-Fc2–4; experiment: bead-based disruption assay (flow cytometry of beads); FcεRIα-Ova coupled polystyrene beads loaded with 500 nM biotin-IgE-Fc2–4 and washed; serial dilution of anti-IgE agent, 30 min, room temperature, 900 rpm; fixed; remaining bIgE-Fc2–4 stained with PE/Cy5-streptavidin; ID50 from dose response fit; settings: both partners purified

Chain of Biotinylated full length recombinant IgE (human) (P01854 whole entry, looked up): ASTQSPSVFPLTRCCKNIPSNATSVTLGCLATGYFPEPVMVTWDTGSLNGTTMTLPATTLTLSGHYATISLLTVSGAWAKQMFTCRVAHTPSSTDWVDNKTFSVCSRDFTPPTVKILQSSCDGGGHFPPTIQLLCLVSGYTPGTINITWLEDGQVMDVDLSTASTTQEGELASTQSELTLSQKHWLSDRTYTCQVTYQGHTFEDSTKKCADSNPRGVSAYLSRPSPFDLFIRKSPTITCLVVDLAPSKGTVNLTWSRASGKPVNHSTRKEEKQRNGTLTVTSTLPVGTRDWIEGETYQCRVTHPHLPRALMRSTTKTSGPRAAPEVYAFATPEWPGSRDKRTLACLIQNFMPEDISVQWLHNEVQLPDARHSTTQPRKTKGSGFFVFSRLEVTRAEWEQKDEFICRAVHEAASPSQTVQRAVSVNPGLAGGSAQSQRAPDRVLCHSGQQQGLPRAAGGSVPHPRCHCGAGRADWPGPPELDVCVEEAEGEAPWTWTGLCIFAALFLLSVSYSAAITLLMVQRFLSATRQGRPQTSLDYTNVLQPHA
Chain of FcεRI (Homo sapiens) (P12319 26-257): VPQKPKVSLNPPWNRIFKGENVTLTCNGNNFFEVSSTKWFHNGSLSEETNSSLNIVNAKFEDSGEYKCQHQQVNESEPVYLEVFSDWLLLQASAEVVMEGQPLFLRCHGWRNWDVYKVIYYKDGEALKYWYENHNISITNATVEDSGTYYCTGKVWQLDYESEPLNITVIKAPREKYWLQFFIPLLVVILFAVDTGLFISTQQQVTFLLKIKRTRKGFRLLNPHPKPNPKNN
Chain of bIgE-Fc2–4:FcεRIα-Ova complex (P12319 whole entry, looked up, tested part not stated, one chain of several): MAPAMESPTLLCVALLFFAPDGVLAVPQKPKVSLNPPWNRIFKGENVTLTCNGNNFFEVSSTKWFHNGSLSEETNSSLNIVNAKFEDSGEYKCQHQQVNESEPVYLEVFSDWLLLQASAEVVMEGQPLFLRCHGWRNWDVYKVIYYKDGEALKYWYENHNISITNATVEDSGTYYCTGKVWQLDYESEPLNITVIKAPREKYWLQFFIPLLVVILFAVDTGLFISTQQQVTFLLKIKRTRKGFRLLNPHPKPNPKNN

- other: ID50 [1]: 40000 nM
- koff (IgE [2]): 0.013 s⁻¹
Molecule: omalizumab single chain variable fragment (scFv) scFvCC (cysteines for a disulfide bond at the VH:VL interface; positions not printed)

- koff (IgE [3]): 0.0016 s⁻¹
- kon (IgE [3]): 2e+06 M⁻¹ s⁻¹
Molecule: omalizumab single chain variable fragment (scFv) VH:G15D; VH:A41T; VH:I52V; VH:D74G; VH:R98K; VH:S100N; VH:H101N; VL:Q27K; VL:Y31S; VL:K46R

- KD of the high affinity site (2:1 model) [4]: 2.86 nM
- KD of the low affinity site (2:1 model) [4]: 25.8 nM
Molecule: HAE scFv (high-affinity omalizumab variant)

- koff (IgE [3]): 0.002 s⁻¹
- kon (IgE [3]): 1e+06 M⁻¹ s⁻¹
Molecule: omalizumab single chain variable fragment (scFv) VH:G15D; VH:I52V; VL:Y31S

Molecule: IgE (from UniProt P01854)
- Kd (FcεRI (Homo sapiens)): 0.1 nM

- koff (IgE [3]): 0.00026 s⁻¹
- kon (IgE [3]): 1.7e+06 M⁻¹ s⁻¹
Molecule: omalizumab single chain variable fragment (scFv) VH:S28N; VH:T53K; VH:D55S; VH:S57E; VH:N59K; VL:Q27K; VL:S28P; VL:Y31G; VL:D32E; VL:M37L

- Kd (biotinylated IgE-Fc2–4 [5]): 1.18 nM
- koff (biotinylated IgE-Fc2–4 [5]): 0.00212 s⁻¹
- kon (biotinylated IgE-Fc2–4 [5]): 1.79e+06 M⁻¹ s⁻¹
- Kd [6]: 1.18 nM
- koff [6]: 0.00212 s⁻¹
- kon [6]: 1.79e+06 M⁻¹ s⁻¹
B1: DARPin E2_79 (designed binder)
chain: MRGSHHHHHHGSDLGKKLLEAARAGQDDEVRILTANGADVNANDYWGHTPLHLAAMLGHLEIVEVLLKNGADVNATGNTGRTPLHLAAWADHLEIVEVLLKHGADVNAQDKFGKTAFDISIDNGNEDLAEILQKL

- binding result (biotinylated-IgE-Fc2–4 [7]): binds
B2: clone 16 scFv (scFv, V domains shown)
VH: EVQLVESGGGLVQPDGSLRLSCAVSGYNITSGYSWNWIRQTPGKGLEWVASVTYDGSTNYNPSVKGRITISRDGSKNTFYLQMNSLRAEDTAVYYCAKGNNYFGHWHFAVWGQGTLVTVSS
VL: DIQLTQSPSSLSASVGDRVTITCRASKPVDGEGDSYLNWYQQKPGKAPKLLIYAASYLESGVPSRFSGSGSGTYFTLTISSLQPEDFATYYCQQSHEDPYTFGQGTKVEIK
notes: VH of clone 16, from a shuffled library of C02 and HAE; most clones used the C02-VH with sporadic further mutations; VL of clone 16, from a shuffled library of C02 and HAE; most clones used the HAE-VL with sporadic further mutations

- binding result (biotinylated-IgE-Fc2–4 [7]): binds
B3: clone A4 scFv (scFv, V domains shown)
VH: B2 VH
VL: B2 VL with Y74G
notes: VH of clone A4, from a shuffled library of C02 and HAE; most clones used the C02-VH with sporadic further mutations; VL of clone A4, from a shuffled library of C02 and HAE; most clones used the HAE-VL with sporadic further mutations

- Kd (biotinylated IgE-Fc2–4 [8]): 0.581 nM
- koff (biotinylated IgE-Fc2–4 [8]): 0.00104 s⁻¹
- kon (biotinylated IgE-Fc2–4 [8]): 1.79e+06 M⁻¹ s⁻¹
B4: clone 7 scFv (C02 with VL D74H) (scFv, V domains shown)
VH: B2 VH
VL: B2 VL with P28S, G31S, E32D, L37M, K46R, Y74H
notes: as the scFv of C02 (Sm8), identical to it beyond D74H in the E-strand of the VL domain; cryo-EM structure with the locked IgE-Fc2–4:FcεRIα complex solved here; D74 counts on the VL domain

- fold increase of ID50 against C02 (biotinylated-IgE-Fc2–4 [9]): 5 fold
B5: clone 7 scFv (scFv, V domains shown)
VH: B2 VH
VL: B2 VL with P28S, G31S, E32D, L37M, K46R, Y74H
notes: VH as the VH of C02; VL as the VL of C02 with D74H in the E-strand; Identical to C02 beyond D74H

- Kd (biotinylated IgE-Fc2–4 [8]): 0.308 nM
- koff (biotinylated IgE-Fc2–4 [8]): 0.000448 s⁻¹
- kon (biotinylated IgE-Fc2–4 [8]): 1.45e+06 M⁻¹ s⁻¹
B6: clone 16 scFv (shuffled C02/HAE omalizumab variant with VL D74Y) (scFv, V domains shown)
VH: B2 VH
VL: B2 VL
notes: from a shuffled library of C02 (Sm8) and HAE (Sm7); D74Y in the E-strand of VL; D74 counts on the VL domain

- Kd (biotinylated IgE-Fc2–4 [8]): 0.377 nM
- koff (biotinylated IgE-Fc2–4 [8]): 0.000565 s⁻¹
- kon (biotinylated IgE-Fc2–4 [8]): 1.5e+06 M⁻¹ s⁻¹
B7: clone A4 scFv (shuffled C02/HAE omalizumab variant with VL D74G) (scFv, V domains shown)
VH: B2 VH
VL: B2 VL with Y74G
notes: from a shuffled library of C02 (Sm8) and HAE (Sm7); D74G in the E-strand of VL; D74 counts on the VL domain
